The test addresses Siglec-10Fc (human) (UniProt Q96LC7). Put plainly: Biacore (SPR): value printed under the KD line for the control Fc with Siglec-10Fc. No curve is drawn for the control Fc. Background: Surface plasmon resonance follows binding to a sensor surface in real time, without labels.
Chain of UniProt Q96LC7 (Q96LC7 17-546): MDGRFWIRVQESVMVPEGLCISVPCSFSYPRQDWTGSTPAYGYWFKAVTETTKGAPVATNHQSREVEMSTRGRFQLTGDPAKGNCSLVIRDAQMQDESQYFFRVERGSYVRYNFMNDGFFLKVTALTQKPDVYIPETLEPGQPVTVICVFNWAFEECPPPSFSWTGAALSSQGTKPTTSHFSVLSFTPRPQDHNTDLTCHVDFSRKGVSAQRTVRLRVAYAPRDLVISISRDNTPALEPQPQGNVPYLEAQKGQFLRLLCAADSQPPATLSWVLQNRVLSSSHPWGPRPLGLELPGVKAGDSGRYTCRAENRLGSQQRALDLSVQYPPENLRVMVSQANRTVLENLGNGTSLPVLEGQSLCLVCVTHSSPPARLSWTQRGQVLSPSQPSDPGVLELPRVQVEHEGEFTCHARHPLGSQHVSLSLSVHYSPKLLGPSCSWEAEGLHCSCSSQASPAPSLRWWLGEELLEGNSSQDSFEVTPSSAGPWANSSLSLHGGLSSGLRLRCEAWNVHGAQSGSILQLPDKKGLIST

As to control Fc, the Kd is 16.2 µM.

In general, Kd refers to the concentration at which binding is half-saturated. Read a high Kd as weaker binding.
